Reference: patent US20070231897A1, “Induction of Insulin Secreting Cell” (KYOTO UNIVERSITY, priority 2004, published 2007)

System: pancreatic acinar cells
Assay: Effect of growth factors on insulin-positive cell induction in main culture of pancreatic acinar cells
Format: cell-based, mouse
Conditions: day 7 of culture; EGF 20 ng/ml, HGF, FGF7 and FGF10 10 ng/ml, GLP-1 30 ng/ml; rank among growth factors (FIG. 8B)
Experimental: Eight-week old male mice (C57B1/6Cr Slc)(Japan SLC, Inc.: Hamamatsu, Japan) were anesthetized with 50 mg/kg of Nembtal (Dainippon Pharma Co., Ltd.: Osaka, Japan) and subjected to laparotomy. The choledoch duct was ligated near the position where it opens to the duodenum. Using a 27G winged needle (Terumo Corporation: Tokyo, Japan), 2-3 ml of Hank's buffer containing 0.05% collagenase P (Roche: Basel, Switzerland) and 10% fetal bovine serum was infused from the liver side. The pancreas, now swollen, was extracted and digested in 5 ml of Hank's buffer per pancreas for 18 minutes at 37° C. The digested pancreas then was made to pass through a 14G indwelling needle in both directions twice to disperse the pancreatic cells, which washed well with Hank's buffer containing 0.1% bovine serum albumin (Sigma: Saint Louis, Mo., USA). The pancreatic cells thus obtained were suspended in a mixed solution (solution A) consisting of 8.3% Ficoll 400 (Amersham Bioscience: Uppsala, Sweden) and 16.7% Conray 400 (Daiichi Pharmaceutical, Tokyo, Japan), and after a 87.5%-diluted solution of solution A and then a 50%-diluted solution of solution A were placed on it in the order, centrifuged (2,000 rpm, 10 min). […]

B1: fibroblast growth factor 10 (protein, UniProt O15520 38-208, looked up)
Fibroblast growth factor 10: QALGQDMVSPEATNSSSSSFSSPSSAGRHVRSYNHLQGDVRWRKLFSFTKYFLKIEKNGKVSGTKKENCPYSILEITSVEIGVVAVKAINSNYYLAMNKKGKLYGSKEFNNDCKLKERIEENGYNTYASFNWQHNGRQMYVALNGKGAPRRGQKTRRKNTSAHFLPMVVHS
notes: fibroblast growth factor 10 (R&D Systems), growth factor added to the culture medium
With B1 the “proportion of insulin-positive cells” value was “this was followed by FGF10 and HGF”.
